Target: Cas7c (D. vulgaris)
Test: cryo-EM structure

stoichiometry N: 7
Substance: Cas7c (natural protein)

Source: paper doi:10.1101/2022.06.15.496202
